According to PMC10030117 (eLife, 2023):

Molecular target: Authentic MERS spike, full-length unstabilized, on the cell surface (MERS-CoV, strain , UniProt K9N5Q8)
Assay: flow cytometry on cells
Settings: one partner purified

Sequence of Authentic MERS spike, full-length unstabilized, on the cell surface (K9N5Q8 18-1353): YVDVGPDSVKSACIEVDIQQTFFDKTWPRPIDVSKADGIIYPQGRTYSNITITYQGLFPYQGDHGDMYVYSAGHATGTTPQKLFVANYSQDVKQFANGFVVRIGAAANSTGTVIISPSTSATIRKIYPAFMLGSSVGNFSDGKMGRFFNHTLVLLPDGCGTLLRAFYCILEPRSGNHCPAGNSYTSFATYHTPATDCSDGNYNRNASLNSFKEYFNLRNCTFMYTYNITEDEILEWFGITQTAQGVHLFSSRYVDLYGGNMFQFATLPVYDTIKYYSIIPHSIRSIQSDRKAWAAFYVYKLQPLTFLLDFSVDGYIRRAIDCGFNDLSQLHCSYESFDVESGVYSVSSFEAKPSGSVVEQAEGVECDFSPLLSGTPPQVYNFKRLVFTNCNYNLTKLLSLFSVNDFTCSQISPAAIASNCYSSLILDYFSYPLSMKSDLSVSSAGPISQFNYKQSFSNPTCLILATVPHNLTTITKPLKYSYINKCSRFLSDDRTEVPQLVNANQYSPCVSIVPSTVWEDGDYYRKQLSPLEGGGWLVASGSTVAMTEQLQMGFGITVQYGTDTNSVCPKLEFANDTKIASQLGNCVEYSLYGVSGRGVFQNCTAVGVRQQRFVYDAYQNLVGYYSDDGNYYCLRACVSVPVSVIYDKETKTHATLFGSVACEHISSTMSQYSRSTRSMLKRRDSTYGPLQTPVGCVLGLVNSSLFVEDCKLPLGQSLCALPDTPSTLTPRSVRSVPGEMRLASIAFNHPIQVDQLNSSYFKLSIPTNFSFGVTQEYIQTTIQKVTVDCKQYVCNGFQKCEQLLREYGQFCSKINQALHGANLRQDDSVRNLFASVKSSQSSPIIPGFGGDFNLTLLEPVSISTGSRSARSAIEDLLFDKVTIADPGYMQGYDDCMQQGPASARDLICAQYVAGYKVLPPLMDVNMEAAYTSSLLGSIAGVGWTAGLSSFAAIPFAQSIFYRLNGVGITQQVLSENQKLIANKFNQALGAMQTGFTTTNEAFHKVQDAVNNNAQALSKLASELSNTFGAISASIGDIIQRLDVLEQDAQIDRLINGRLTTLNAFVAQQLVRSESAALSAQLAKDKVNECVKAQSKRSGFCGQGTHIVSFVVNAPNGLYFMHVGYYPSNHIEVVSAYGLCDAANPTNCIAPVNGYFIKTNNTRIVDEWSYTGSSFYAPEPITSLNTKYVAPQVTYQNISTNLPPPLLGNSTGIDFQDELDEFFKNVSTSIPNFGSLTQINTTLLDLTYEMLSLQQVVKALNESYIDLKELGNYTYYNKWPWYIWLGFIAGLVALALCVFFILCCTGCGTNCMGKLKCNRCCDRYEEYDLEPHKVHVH

B1: Antibody RAY53, full-length human IgG1 (antibody, V domains shown)
VH: QVQLVQSGAVVLKPGASVKLSCKASGFNIKNTYIHWLKQAPGQRLEWIGRIGPAIGNTIYAPKFQGKATITTDTSASTAYLELSSLRSEDTAVYYCARYYGSSYYYLDYWGQGTTVTVSS
VL: DIVMTQSPLSVPVTPGEPVSISCRSSKSLLHSNGNTYLYWFLQKPGQSPQLLIARMSTLASGVPDRFSGSGSGTAFTLKISRVEAEDVGVYYCMQYLEYPLTFGAGTKLEIK
binding result: binds
